Data: patent publication US20210063414A1, “METHODS FOR PREVENTING AND/OR TREATING BONE LOSS CONDITIONS BY MODULATING IRISIN” (Dana-Farber Cancer Institute, Inc., priority 2018, published 2021)

Target: T1, MLO-Y4 cell surface proteins (Mus musculus, UniProt P70388)
T1 construct: endogenous in cells; host or cells: MLO-Y4
T1 sequence (P70388 1-1312): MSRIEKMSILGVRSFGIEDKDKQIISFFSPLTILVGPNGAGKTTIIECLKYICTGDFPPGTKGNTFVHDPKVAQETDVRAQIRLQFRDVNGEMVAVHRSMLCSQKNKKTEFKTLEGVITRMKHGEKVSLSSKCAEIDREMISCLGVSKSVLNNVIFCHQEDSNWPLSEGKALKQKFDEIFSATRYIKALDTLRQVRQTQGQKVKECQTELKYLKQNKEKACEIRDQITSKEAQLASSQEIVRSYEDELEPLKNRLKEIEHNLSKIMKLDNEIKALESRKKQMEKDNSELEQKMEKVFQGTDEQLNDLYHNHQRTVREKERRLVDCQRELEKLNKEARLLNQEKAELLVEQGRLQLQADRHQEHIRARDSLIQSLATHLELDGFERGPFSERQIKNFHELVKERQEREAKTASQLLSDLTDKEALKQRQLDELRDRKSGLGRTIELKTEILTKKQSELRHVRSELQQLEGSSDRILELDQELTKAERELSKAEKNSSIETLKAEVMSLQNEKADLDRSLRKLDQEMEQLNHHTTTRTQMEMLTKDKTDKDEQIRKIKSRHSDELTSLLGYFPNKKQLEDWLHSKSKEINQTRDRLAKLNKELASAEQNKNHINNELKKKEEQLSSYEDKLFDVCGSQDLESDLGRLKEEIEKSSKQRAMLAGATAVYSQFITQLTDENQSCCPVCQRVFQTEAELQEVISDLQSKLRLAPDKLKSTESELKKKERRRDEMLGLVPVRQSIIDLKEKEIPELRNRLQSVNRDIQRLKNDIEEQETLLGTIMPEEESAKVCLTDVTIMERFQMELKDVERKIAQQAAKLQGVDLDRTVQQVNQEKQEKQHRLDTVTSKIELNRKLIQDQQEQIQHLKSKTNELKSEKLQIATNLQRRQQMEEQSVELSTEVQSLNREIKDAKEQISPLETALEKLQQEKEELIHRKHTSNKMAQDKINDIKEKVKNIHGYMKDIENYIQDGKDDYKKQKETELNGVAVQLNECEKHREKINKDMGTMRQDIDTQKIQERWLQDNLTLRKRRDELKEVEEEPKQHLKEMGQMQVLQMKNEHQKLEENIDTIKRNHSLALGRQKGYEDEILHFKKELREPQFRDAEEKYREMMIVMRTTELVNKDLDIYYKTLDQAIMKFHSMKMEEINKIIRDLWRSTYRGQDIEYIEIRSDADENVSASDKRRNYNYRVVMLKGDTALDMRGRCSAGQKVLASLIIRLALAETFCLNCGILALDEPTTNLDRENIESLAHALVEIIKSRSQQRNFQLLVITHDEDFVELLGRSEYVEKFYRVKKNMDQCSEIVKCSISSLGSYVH
Experiment: Crosslinking/co-immunoprecipitation/mass spectrometry (TMT quantitative proteomics) to identify irisin receptors
Type: binding
Conditions: co-precipitated protein Rad50 (RAD50_MOUSE)
How it was run: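 Mouse MLO-Y4 cells were switched to serum-free FreeStyle medium for 4 h, chilled, then exposed to 10 nM His-tagged irisin (or adipsin as control) for 20 min. Cells were crosslinked with 1.5 mM DTSSP (30 min, ice), and bound proteins were pulled down on Ni-NTA and eluted with 250 mM imidazole. Eluates were separated by SDS-PAGE, trypsin-digested in gel, TMT 6-plex labelled and quantified by MS3-based LC-MS/MS on an Orbitrap Fusion Lumos.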

B1: irisin: secreted cleaved form of FNDC5; recombinant human/mouse irisin with C-terminal his tag produced in HEK293 cells (protein)
chain: DSPSAPVNVTVRHLKANSAVVSWDVLEDEVVIGFAISQQKKDVRMLRFIQEVNTTTRSCALWDLEEDTEYIVHVQAISIQGQSPASEPVLFKTPREAEKMASKNKDEVTMKE
modifications: left off: small tags and cut ends
notes: secreted cleaved form of FNDC5; recombinant human/mouse irisin with C-terminal his tag produced in HEK293 cells
B1 was tested, and the TMT signal-to-noise ratio was 10.8209 and the “irisin/adipsin TMT signal-to-noise ratio” value was 0.026.
